Test results: PMC4842972, “Identification of residues crucial for the interaction between human neuroglobin and the α-subunit of heterotrimeric Gi protein” (Scientific Reports, 2016)
Numbering of substitutions follows the chain as printed. Names and notes keep the numbering of the source.

B1: GST-human ferric E151Q Ngb mutant (natural protein)
chain: MERPEPELIRQSWRAVSRSPLEHGTVLFARLFALEPDLLPLFQYNCRQFSSPEDCLSSPEFLDHIRKVMLVIDAAVTNVEDLSSLEEYLASLGRKHRAVGVKLSSFSTVGESLLYMLEKCLGPAFTPATRAAWSQLYGAVVQAMSRGWDGQ
notes: human neuroglobin (Ngb) with E151Q (the residue of bush baby Ngb at this position); in pGEX-4T-1; Ferric form; made by site-directed mutagenesis of GST-Ngb; also called GST-human Ngb mutant; source: E. coli BL21 (DE3), purified (glutathione-Sepharose 4B)
B2: GST-human ferric R97C Ngb mutant (natural protein)
chain: B1 chain with R97C, Q151E
notes: human neuroglobin (Ngb) with R97C (the residue of megabat Ngb at this position); in pGEX-4T-1; Ferric form; made by site-directed mutagenesis of GST-Ngb; also called GST-human Ngb mutant; source: E. coli BL21 (DE3), purified (glutathione-Sepharose 4B)
B3: GST-human ferric WT Ngb (neuroglobin) (natural protein)
chain: B1 chain with Q151E
notes: human neuroglobin (Ngb); human Ngb cDNA cloned into pGEX-4T-1; also called GST-human WT Ngb; GST-human Ngb; source: E. coli BL21 (DE3), purified (glutathione-Sepharose 4B)

Legend:
Experiment in all cases: pull-down; GST-ferric Ngb (or GST alone) immobilised on glutathione-Sepharose 4B beads, incubated with truncated Gαi1; 10 mM HEPES, 150 mM NaCl, 10 mM MgCl2, 10 uM GDP, 0.1% Tween20, pH 7.4; 1 h at 4 °C; Western blot with anti-Gαi1 monoclonal antibody
Conditions in all cases: both partners purified
[1] = target: T1, human WT truncated Gαi1 protein (residues 26-354), GDP-bound form (human, UniProt P63096 26-354)
T1 construct: human Gαi1 (α-subunit of heterotrimeric Gi protein), residues 26-354; lacks the N-terminal disordered region (25 amino acids); Cloned in pET151/D-TOPO with a TEV site after the His6-tag; also called WT Gαi1; not shown: His6, N-terminal, cleaved

[2] = target: T2, human truncated Gαi1 K180L single mutant, GDP-bound form (human, UniProt P63096 26-354, K180L)
T2 construct: human Gαi1, residues 26-354, with K180L (Leu is the corresponding residue of human Gαs); site-directed mutant of the truncated Gαi1 construct; also called K180L Gαi1; not shown: His6, N-terminal, cleaved

[3] = target: T3, human truncated Gαi1 E236Q single mutant, GDP-bound form (human, UniProt P63096 26-354, E236Q)
T3 construct: human Gαi1, residues 26-354, with E236Q; site-directed mutant of the truncated Gαi1 construct; also called E236Q Gαi1; not shown: His6, N-terminal, cleaved

[4] = target: T4, human truncated Gαi1 E238N, E239Q double mutant, GDP-bound form (human, UniProt P63096 26-354, E238N | E239Q)
T4 construct: human Gαi1, residues 26-354, with E238N and E239Q (the corresponding residues of human Gαs); site-directed mutant of the truncated Gαi1 construct; also called E238N, E239Q Gαi1 double mutant; not shown: His6, N-terminal, cleaved

[5] = target: T5, human truncated Gαi1 R86A single mutant, GDP-bound form (human, UniProt P63096 26-354, R86A)
T5 construct: human Gαi1, residues 26-354, with R86A; site-directed mutant of the truncated Gαi1 construct; also called R86A Gαi1; not shown: His6, N-terminal, cleaved

[6] = target: T6, human truncated Gαi1 K67A single mutant, GDP-bound form (human, UniProt P63096 26-354, K67A)
T6 construct: human Gαi1, residues 26-354, with K67A; site-directed mutant of the truncated Gαi1 construct; also called K67A Gαi1; not shown: His6, N-terminal, cleaved
T6 sequence (P63096 26-354 K67A): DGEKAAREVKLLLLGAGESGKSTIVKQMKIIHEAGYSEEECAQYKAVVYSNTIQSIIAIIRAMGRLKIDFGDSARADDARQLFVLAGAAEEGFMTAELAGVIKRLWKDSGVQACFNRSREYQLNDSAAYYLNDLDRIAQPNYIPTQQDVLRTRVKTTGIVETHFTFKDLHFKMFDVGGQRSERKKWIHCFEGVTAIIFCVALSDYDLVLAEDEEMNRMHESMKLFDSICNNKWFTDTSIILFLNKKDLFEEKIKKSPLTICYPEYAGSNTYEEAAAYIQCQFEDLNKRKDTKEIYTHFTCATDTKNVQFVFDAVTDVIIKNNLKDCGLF

T1 sequence (P63096 26-354): as the sequence (P63096 26-354 K67A) above, with A42K counted along it
T2 sequence (P63096 26-354 K180L): as the sequence (P63096 26-354 K67A) above, with A42K, K155L counted along it
T3 sequence (P63096 26-354 E236Q): as the sequence (P63096 26-354 K67A) above, with A42K, E211Q counted along it
T5 sequence (P63096 26-354 R86A): as the sequence (P63096 26-354 K67A) above, with A42K, R61A counted along it
T4 sequence (P63096 26-354 E238N/E239Q): as the sequence (P63096 26-354 K67A) above, with A42K, E213N, E214Q counted along it

Binder | binding result [1] | binding result [2] | binding result [3] | binding result [4] | binding result [5] | binding result [6]
B1 | binds |  |  |  |  | 
B2 | binds |  |  |  |  | 
B3 | binds | binds | binds | binds | binds | binds
